One experiment deals with T1, purified human TRAP1 (human, UniProt Q12931 60-704).
T1 sequence: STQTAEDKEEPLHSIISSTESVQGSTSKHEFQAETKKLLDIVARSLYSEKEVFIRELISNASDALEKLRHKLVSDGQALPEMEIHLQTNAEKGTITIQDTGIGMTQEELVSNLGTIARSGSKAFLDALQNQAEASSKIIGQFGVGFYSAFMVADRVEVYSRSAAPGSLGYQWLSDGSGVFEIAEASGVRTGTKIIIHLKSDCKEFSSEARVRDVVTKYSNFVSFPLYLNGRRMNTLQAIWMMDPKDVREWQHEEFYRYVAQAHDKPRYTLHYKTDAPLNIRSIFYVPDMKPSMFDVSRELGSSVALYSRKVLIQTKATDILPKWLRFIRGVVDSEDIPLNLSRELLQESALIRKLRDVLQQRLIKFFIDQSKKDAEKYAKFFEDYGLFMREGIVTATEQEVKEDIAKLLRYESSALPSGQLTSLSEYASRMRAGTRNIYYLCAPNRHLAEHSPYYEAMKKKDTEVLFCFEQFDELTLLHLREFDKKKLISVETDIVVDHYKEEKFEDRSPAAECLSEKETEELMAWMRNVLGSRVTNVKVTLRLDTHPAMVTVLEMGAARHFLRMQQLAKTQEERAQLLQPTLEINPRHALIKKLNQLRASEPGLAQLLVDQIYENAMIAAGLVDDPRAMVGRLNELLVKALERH
The experiment is described as follows: far-Western, overlay or dot blot.

In experiment [1] the target is T2, recombinant mature human OSCP (human, UniProt P48047 24-213).
T2 sequence: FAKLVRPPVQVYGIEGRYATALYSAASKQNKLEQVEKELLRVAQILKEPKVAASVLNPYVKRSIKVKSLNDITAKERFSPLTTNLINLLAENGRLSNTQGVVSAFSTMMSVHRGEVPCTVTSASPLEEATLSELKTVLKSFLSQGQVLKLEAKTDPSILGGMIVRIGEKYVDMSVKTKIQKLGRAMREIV
The experiment is described as follows: SPR. (In general: Surface plasmon resonance follows binding to a sensor surface in real time, without labels.)

B1: F-ATP synthase subunit g (bovine heart) (natural protein)
chain: MAEFVRNLAEKAPALVNAAVTYSKPRLATFWYYAKVELVPPTPAEIPTAIQSLKKIINSAKTGSFKQLTVKEALLNGLVATEVWMWFYVGEIIGKRGIIGYDV
Consider B1, for which the binding result in the experiment with purified human TRAP1 was “binds”.

B2: F-ATP synthase subunit b (bovine heart) (natural protein)
chain: PVPPLPEHGGKVRFGLIPEEFFQFLYPKTGVTGPYVLGTGLILYLLSKEIYVITPETFSAISTIGFLVYIVKKYGASVGEFADKLNEQKIAQLEEVKQASIKQIQDAIDMEKSQQALVQKRHYLFDVQRNNIAMALEVTYRERLHRVYREVKNRLDYHISVQNMMRQKEQEHMINWVEKRVVQSISAQQEKETIAKCIADLKLLSKKAQAQPVM
Take B2: the binding result with purified human TRAP1 was “binds”.

B3: F-ATP synthase subunit α (bovine heart) (natural protein)
chain: QKTGTAEVSSILEERILGADTSVDLEETGRVLSIGDGIARVHGLRNVQAEEMVEFSSGLKGMSLNLEPDNVGVVVFGNDKLIKEGDIVKRTGAIVDVPVGEELLGRVVDALGNAIDGKGPIGSKARRRVGLKAPGIIPRISVREPMQTGIKAVDSLVPIGRGQRELIIGDRQTGKTSIAIDTIINQKRFNDGTDEKKKLYCIYVAIGQKRSTVAQLVKRLTDADAMKYTIVVSATASDAAPLQYLAPYSGCSMGEYFRDNGKHALIIYDDLSKQAVAYRQMSLLLRRPPGREAYPGDVFYLHSRLLERAAKMNDAFGGGSLTALPVIETQAGDVSAYIPTNVISITDGQIFLETELFYKGIRPAINVGLSVSRVGSAAQTRAMKQVAGTMKLELAQYREVAAFAQFGSDLDAATQQLLSRGVRLTELLKQGQYSPMAIEEQVAVIYAGVRGYLDKLEPSKITKFENAFLSHVISQHQALLSKIRTDGKISEESDAKLKEIVTNFLAGFEA
For B3, in the experiment with purified human TRAP1, the binding result is given as “binds”.

B4: F-ATP synthase subunit OSCP (bovine heart) (natural protein)
chain: FAKLVRPPVQIYGIEGRYATALYSAASKQNKLEQVEKELLRVGQILKEPKMAASLLNPYVKRSVKVKSLSDMTAKEKFSPLTSNLINLLAENGRLTNTPAVISAFSTMMSVHRGEVPCTVTTASALDEATLTELKTVLKSFLSKGQVLKLEVKIDPSIMGGMIVRIGEKYVDMSAKTKIQKLSRAMREIL
For the molecule B4, the binding result with purified human TRAP1 is on record as “binds”.

B5: recombinant mature human CyPD (natural protein)
chain: not shown
Regarding B5, the binding result in experiment [1] is on record as “binds”.

These data come from doi:10.1101/2021.12.06.471412 (bioRxiv, 2021).
